Each block holds one molecule with its values, some of them ahead of it.
Tests used:
[1] = biological target: T1, four-subunit cytochrome bc1 complex (WT) in SMA nanodiscs (Cereibacter sphaeroides, UniProt Q02761+Q02762); test: cryo-EM structure, […] Å; assay type: binding; conditions: natively bound, co-purified; Qo site of one cyt b; isoprene tail truncated in model; redox state not determined; H-bond to Rieske His152
T1 construct: gene petB; native purification from photosynthetically grown cells, SMA lipid nanodisc, His10 tag on cyt c1, dimer; SIV 124 residues, 79-107 resolved; with Cytochrome c1; Ubiquinol-cytochrome c reductase subunit IV

[2] = biological target: T2, cytochrome b subunit of the Rhodobacter sphaeroides cytochrome bc1 complex (Rhodobacter sphaeroides, UniProt Q02761 1-445); test: cryo-EM structure; conditions: both partners purified
T2 construct: also called cyt b; source: endogenous, R. sphaeroides grown photosynthetically; SMA-solubilised membranes, purified in native nanodiscs (Ni-NTA, sucrose gradient, SEC)
T2 sequence (looked up): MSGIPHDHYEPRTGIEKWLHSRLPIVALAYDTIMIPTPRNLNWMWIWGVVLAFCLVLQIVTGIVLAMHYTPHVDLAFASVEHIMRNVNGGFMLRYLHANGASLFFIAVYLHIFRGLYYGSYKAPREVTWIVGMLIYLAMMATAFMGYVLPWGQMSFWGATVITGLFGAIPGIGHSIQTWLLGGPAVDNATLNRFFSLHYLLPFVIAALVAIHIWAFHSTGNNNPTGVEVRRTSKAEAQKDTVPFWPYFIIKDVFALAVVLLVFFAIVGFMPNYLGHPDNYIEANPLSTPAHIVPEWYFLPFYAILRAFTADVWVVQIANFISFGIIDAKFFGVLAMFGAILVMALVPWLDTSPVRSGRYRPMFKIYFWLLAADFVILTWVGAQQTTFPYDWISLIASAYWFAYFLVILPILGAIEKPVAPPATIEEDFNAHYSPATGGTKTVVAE

[3] = biological target: the molecule itself; test: cryo-EM structure; purified four-subunit cyt bc1 in SMA native lipid nanodiscs, no inhibitors added, 20 mM Tris-HCl pH 8, 200 mM NaCl; C1 consensus map at 2.9 Å and a focused class at 3.75 Å (FSC 0.5)

Molecule: COC1=C(OC)C(=O)C(C/C=C(\C)CC/C=C(\C)CC/C=C(\C)CC/C=C(\C)CC/C=C(\C)CC/C=C(\C)CC/C=C(\C)CC/C=C(\C)CC/C=C(\C)CCC=C(C)C)=C(C)C1=O [U10, ubiquinone-10]
cryo-EM structure, 2.9 Å [1]: a ubiquinone-10 molecule bound in the Qo site of one of the cyt b subunits

binding result [2]: binds
B1: Rieske iron-sulfur protein subunit of the Rhodobacter sphaeroides cytochrome bc1 complex (natural protein, UniProt Q02762 1-187, looked up)
chain: MSNAEDHAGTRRDFLYYATAGAGAVATGAAVWPLINQMNPSADVQALASIFVDVSSVEPGVQLTVKFLGKPIFIRRRTEADIELGRSVQLGQLVDTNARNANIDAGAEATDQNRTLDEAGEWLVMWGVCTHLGCVPIGGVSGDFGGWFCPCHGSHYDSAGRIRKGPAPENLPIPLAKFIDETTIQLG
notes: also called Rieske subunit; Rieske ISP; source: endogenous, R. sphaeroides grown photosynthetically; SMA-solubilised membranes, purified in native nanodiscs (Ni-NTA, sucrose gradient, SEC)

B2: four-subunit Rhodobacter sphaeroides cytochrome bc1 complex (one monomer of the dimeric complex: cyt b, cyt c1, Rieske subunit, SIV) (complex)
chain 1: MSGIPHDHYEPRTGIEKWLHSRLPIVALAYDTIMIPTPRNLNWMWIWGVVLAFCLVLQIVTGIVLAMHYTPHVDLAFASVEHIMRNVNGGFMLRYLHANGASLFFIAVYLHIFRGLYYGSYKAPREVTWIVGMLIYLAMMATAFMGYVLPWGQMSFWGATVITGLFGAIPGIGHSIQTWLLGGPAVDNATLNRFFSLHYLLPFVIAALVAIHIWAFHSTGNNNPTGVEVRRTSKAEAQKDTVPFWPYFIIKDVFALAVVLLVFFAIVGFMPNYLGHPDNYIEANPLSTPAHIVPEWYFLPFYAILRAFTADVWVVQIANFISFGIIDAKFFGVLAMFGAILVMALVPWLDTSPVRSGRYRPMFKIYFWLLAADFVILTWVGAQQTTFPYDWISLIASAYWFAYFLVILPILGAIEKPVAPPATIEEDFNAHYSPATGGTKTVVAE
chain 2: AGGGHVEDVPFSFEGPFGTFDQHQLQRGLQVYTEVCAACHGMKFVPIRSLSEPGGPELPEDQVRAYATQFTVTDEETGEDREGKPTDHFPHSALENAADLSLMAKARAGFHGPMGTGISQLFNGIGGPEYIYSVLTGFPEEPPKCAEGHEPDGFYYNRAFQNGSVPDTCKDANGVKTTAGSWIAMPPPLMDDLVEYADGHDASVHAMAEDVSAFLMWAAEPKLMARKQAGFTAVMFLTVLSVLLYLTNKRLWAGVKGKKKTNV
chain 3: MSNAEDHAGTRRDFLYYATAGAGAVATGAAVWPLINQMNPSADVQALASIFVDVSSVEPGVQLTVKFLGKPIFIRRRTEADIELGRSVQLGQLVDTNARNANIDAGAEATDQNRTLDEAGEWLVMWGVCTHLGCVPIGGVSGDFGGWFCPCHGSHYDSAGRIRKGPAPENLPIPLAKFIDETTIQLG
chain 4: MFSFIDDIPSFEQIKARVRDDLRKHGWEKRWNDSRLVQKSRELLNDEELKIDPATWIWKRMPSREEVAARRQRDFETVWKYRYRLGGFASGALLALALAGIFSTGNFGGSSDAGNRPSVVYPIE
notes: also called cyt bc1; cyt bc1-nanodisc complex
stoichiometry N [3]: 2

— article PMC10041115, “Cryo-EM structure of the four-subunit Rhodobacter sphaeroides cytochrome bc1 complex in styrene maleic acid nanodiscs” (Proceedings of the National Academy of Sciences of the …, 2023)
